In paper PMC12578325:

Target: Bluetongue virus serotype 1 (BTV-1) outer capsid protein VP2
Assay: Co-IP with anti-NS3 antibody, densitometry of VP2 band
Details: parent: est. 1.0; read off a plot

| Substance | ratio to parent (relative fold change) |
| --- | --- |
| Bluetongue virus serotype 1 (BTV-1) non-structural glycoprotein NS3, wild type K196A; K197A; E198A | 0.56 |
| Bluetongue virus serotype 1 (BTV-1) non-structural glycoprotein NS3, wild type N150A | 0.61 |
